# In patent KR20220147765A (dated 2022):
# Positions count from the first letter of the chain named.
# B1: RB6 (antibody, V domains shown)
# VH: EVQLLESGGGLVQPGGSLRLSCAASGFTFSSYDMSWVRQAPGKGLEWVSGISYSGGSTYYADSVKGRFTISRDNSKNTLYLQMNSLRAEDTAVYYCARDVNFVPLVTFDYWGQGTLVTVSS
# VL: QSVLTQPPSASGTPGQRVTLSCTGSSSNIGSNSVTWYQQLPGTAPKLLIYDDNQRPSGVPDRFSGSKSGTSASLAISGLRSEDEADYYCGTWDYSLSAYVFGGGTKLTVL
# notes: also called SARS-CoV-2 RBD 특이적 IgG 선별항체 RB6; clone RB6
# B2: RD10 (antibody, V domains shown)
# VH: EVQLLESGGGLVQPGGSLRLSCAASGFTFSDYAMSWVRQAPGKGLEWVSAIYPGGGSTYYADSVKGRFTISRDNSKNTLYLQMNSLRAEDTAVYYCARNLFGFDYWGQGTLVTVSS
# VL: B1 VL with L20I, S33A, T35Y, N53S, Q54N, T91S, Y94D
# notes: also called SARS-CoV-2 RBD 특이적 IgG 선별항체 RD10; clone RD10
# B3: RD3 (antibody, V domains shown)
# VH: EVQLLESGGGLVQPGGSLRLSCAASGFTFSDYAMSWVRQAPGKGLEWVSWIYSGSGNKYYADSVKGRFTISRDNSKNTLYLQMNSLRAEDTAVYYCARFPIARTSNSQSSYDGMDVWGQGTLVTVSS
# VL: B1 VL with L20I, T23S, S33A, T35S, D51A, Q54K, T91A, Y94S, S97N
# notes: also called SARS-CoV-2 RBD 특이적 IgG 선별항체 RD3; clone RD3
# Biological target: T1, SARS-CoV S 단백질의 RBD 항원 (SARS-CoV, UniProt P59594 306-527)
# T1 construct: also called SARS-CoV RBD
# Experiment: ELISA, 0.1 μg antigen coated, IgG4
row,Binder,binding result
1,B1,binds
2,B2,binds
3,B3,binds
